Assay results reported in patent US20230312724A1 (KADMON, published 2023).
Like-named read-outs stand apart in the source and are kept apart here.

Columns and labels:
human B7-H4-Fc [1] = target: T1, human B7-H4-Fc (human); assay: ELISA, coated hB7-H4-Fc
T1 construct: also called hB7-H4-Fc; hB7-H4 Fc
Procedure: (§1) ELISA experiments were performed to determine binding to hB7-H4-Fc (FIG. 4A), hB7-H4-his (FIG. 4B), hB7-H4 IgV domain (FIG. 4C), and mB7-H4 IgV domain (FIG. 4D). Flow cytrometry experiments were performed to determine binding to CHO cells expressing hB7-H4 (FIG. 4E) or mB7-H4 (FIG. 4F). […] A cross-reactive IgV binding antibody was used as a control.
(§2) About 1-2 μg/ml of human or mouse B7-H4-Fc (or his-tagged) was immobilized on ELISA plates (Immuno 2HB, Thermo scientific, cat #3455) at 4° C. overnight. After blocking the plates with 3% PBS+milk, serial diluted antibodies were added to the blocked plates and incubated at RT for 1-1.5 h. After washing the plates with PBS-T (0.05%), horse radish peroxidase (HRP)-conjugated antibody targeting the hFab was added to the plate. Signals were developed by adding 3,3′,5,5′-Tetramethylbenzidine (TMB (followed 1N of H₂SO₄ to stop the reaction. The OD at 450 nm was read by ELISA plate reader (Infinite M1000 from TECAN). GraphPad from Prism was used to plot OD450 vs. antibody concentration curve and to calculate the EC50 values.

[2] = target: T2, mouse B7-H4 expressed on cells (mouse, UniProt Q7TSP5 25-257); assay: flow cytometry, mB7H4 stable cells (CHO)
T2 construct: also called cellular mB7-H4; mB7-H4/CT26
T2 sequence: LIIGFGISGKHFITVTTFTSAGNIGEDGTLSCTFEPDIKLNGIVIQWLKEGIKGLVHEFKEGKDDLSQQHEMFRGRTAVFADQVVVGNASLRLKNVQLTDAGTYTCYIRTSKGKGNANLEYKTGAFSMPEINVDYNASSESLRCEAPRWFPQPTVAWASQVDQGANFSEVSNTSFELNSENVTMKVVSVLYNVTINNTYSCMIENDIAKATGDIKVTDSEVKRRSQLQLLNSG
Procedure: as §1
(§3) Cells were harvested, washed once, and then re-suspended to the concentration of 1×10⁶ cells/ml in ice cold FACS Buffer. 25 μl of cell suspension was added to each well of a 96-well round-bottom microliter plate. Serially diluted antibodies or fusion proteins were added to each well and incubated for 1 hour at 4° C. Cells were washed three times by centrifugation at 1500 rpm for 5 minutes, and then stained with secondary antibody (1:200 dilution) for 30 min at 4° C. in the dark. Cells were washed once, re-suspended in 100 μl PBS buffer and then analyzed using Guava Flow Cytometry EasyCyte system.

mouse B7-H4-his [3] = target: T3, mouse B7-H4-his (mouse, UniProt Q7TSP5 25-257); assay: SPR (Biacore)
T3 construct: also called mB7-H4-his; mB7-H4-His; not shown: his tag
T3 sequence: T2 sequence

human B7-H4-Fc [4] = target: T1, human B7-H4-Fc; assay: SPR (Biacore)
human B7-H4-his [5] = target: T4, human B7-H4-his (human, UniProt Q7Z7D3 25-259); assay: SPR (Biacore)
T4 construct: also called hB7-H4-his; hB7-H4 his; not shown: his tag
T4 sequence: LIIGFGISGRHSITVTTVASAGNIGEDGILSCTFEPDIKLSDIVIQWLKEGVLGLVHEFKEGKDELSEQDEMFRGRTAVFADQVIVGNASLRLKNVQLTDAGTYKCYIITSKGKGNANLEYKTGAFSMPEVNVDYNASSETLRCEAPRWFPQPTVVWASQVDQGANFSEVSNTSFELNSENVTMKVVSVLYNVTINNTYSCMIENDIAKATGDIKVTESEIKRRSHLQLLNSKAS

mouse B7-H4-Fc [6] = target: T5, mouse B7-H4-Fc (mouse; human); assay: ELISA, coated mB7-H4-Fc (title on the sheet: Binding to mB7H4-Fc)
T5 construct: also called mB7-H4-Fc; mB7-H4-hFc
Procedure: as §1, §2

[7] = target: T6, IgV domain of mouse B7-H4-Fc (mouse; human); assay: ELISA, coated mB7-H4 IgV domain
T6 construct: also called mB7-H4 IgV domain
Procedure: as §1, §2

[8] = target: T7, mB7-H4 (soluble mouse B7-H4, construct not named) (mouse, UniProt Q7TSP5 25-257, limits assumed); assay: summary of ELISA and flow cytometry
T7 sequence: T2 sequence

[9] = target: T6, IgV domain of mouse B7-H4-Fc; assay: ELISA, coated mB7-H4 IgV domain; remark: listed apart in the source
[10] = target: T2, mouse B7-H4 expressed on cells; assay: flow cytometry, CT26 cells expressing mB7-H4
human B7-H4-Fc [11] = target: T1, human B7-H4-Fc; assay: ELISA on coated hB7-H4-Fc
Procedure: as §2

human B7-H4-his [12] = target: T4, human B7-H4-his; assay: ELISA on coated hB7-H4-his
Procedure: as §2

[13] = target: T8, IgV domain of human B7-H4-Fc (human); assay: ELISA, coated hB7-H4 IgV domain
T8 construct: also called hB7-H4 IgV domain

[14] = target: T9, human B7-H4 expressed on cells (human, UniProt Q7Z7D3 25-282); assay: flow cytometry, MX-1 cells
T9 construct: Transfected CHO cells or tumor cell lines that carry hB7-H4; also called cellular hB7-H4
T9 sequence: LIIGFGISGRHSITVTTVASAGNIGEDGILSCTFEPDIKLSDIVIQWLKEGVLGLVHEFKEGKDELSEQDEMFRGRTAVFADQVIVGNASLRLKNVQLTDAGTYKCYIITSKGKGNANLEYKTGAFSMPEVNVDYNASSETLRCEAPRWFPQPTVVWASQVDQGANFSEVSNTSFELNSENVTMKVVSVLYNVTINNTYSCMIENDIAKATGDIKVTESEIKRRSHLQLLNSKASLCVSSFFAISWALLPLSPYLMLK
Procedure: as §3

[15] = target: T10, IgC domain of human B7-H4-Fc (human); assay: ELISA, coated hB7-H4 IgC domain
T10 construct: also called hB7-H4 IgC domain

[16] = target: T9, human B7-H4 expressed on cells; assay: flow cytometry, SK-BR-3 cells
[17] = target: T11, hB7-H4 (soluble human B7-H4, construct not named) (human, UniProt Q7Z7D3 25-259, limits assumed); assay: ELISA, hB7-H4
T11 construct: also called soluble hB7-H4
T11 sequence: T4 sequence
How it was run: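 Each antibody, diluted in series, was incubated 1-1.5 h at RT on milk-blocked wells coated with ~1-2 μg/ml human or mouse B7-H4-Fc (or his-tagged) at 4° C overnight. An HRP anti-human Fab with TMB gave the OD450 signal.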

mouse B7-H4-his [18] = target: T3, mouse B7-H4-his; assay: ELISA on coated mB7-H4-his
Procedure: as §2

[19] = target: T11, hB7-H4 (soluble human B7-H4, construct …); assay: SPR (Biacore)
How it was run: (§4)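 Ligands (human B7-H4-Fc, human B7-H4-his, mouse B7-H4-Fc) were amine-coupled to CM5 chips at 50-100 RU. Analyte was injected at 100 nM to 0.1 nM in HBS-EP, pH 7.4, at 25 °C, with 180 s association and 1000 or 1200 s dissociation. Kinetics were fitted to a 1:1 Langmuir model.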

human B7-H4-Fc [20] = target: T1, human B7-H4-Fc; assay: SPR (Biacore); remark: listed apart in the source
How it was run: as §4

human B7-H4-his [21] = target: T4, human B7-H4-his; assay: SPR (Biacore); remark: listed apart in the source
How it was run: as §4

[22] = target: T9, human B7-H4 expressed on cells; assay: flow cytometry, SK-BR-3 cells; remark: listed apart in the source
How it was run: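 Serially diluted antibodies or fusion proteins were incubated with cells at 1×10⁶ cells/ml in ice-cold FACS buffer for 1 h at 4 °C. After three washes, bound protein was detected with a 1:200 secondary antibody, 30 min at 4 °C in the dark, and read by flow cytometry.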

[23] = target: T9, human B7-H4 expressed on cells; assay: flow cytometry, MDA-MB-468 cells
Procedure: as §3

[24] = target: T8, IgV domain of human B7-H4-Fc; assay: ELISA on coated IgV domain of hB7-H4
Procedure: as §2

[25] = target: T12, IgC domain of mouse B7-H4-Fc (mouse; human); assay: ELISA, coated mB7-H4 IgC domain
T12 construct: also called mB7-H4 IgC domain

mouse B7-H4-Fc [26] = target: T5, mouse B7-H4-Fc; assay: ELISA on coated mB7-H4-Fc
Procedure: as §2

[27] = target: T11, hB7-H4 (soluble human B7-H4, construct …); assay: SPR (Biacore); remark: listed apart in the source
[28] = target: T11, hB7-H4 (soluble human B7-H4, construct …); assay: ELISA, hB7-H4; remark: listed apart in the source
Procedure: as §2

human B7-H4-his [29] = target: T4, human B7-H4-his; assay: ELISA, coated hB7-H4-his
Procedure: as §2

[30] = target: T2, mouse B7-H4 expressed on cells; assay: flow cytometry, CHO cells expressing mB7-H4
Procedure: (§5) ELISA experiments were performed to determine binding to hB7-H4-Fc (FIG. 5A), hB7-H4-his (FIG. 5B), mB7-H4-Fc domain (FIG. 5C), hB7-H4 IgV domain (FIG. 5D), and hB7-H4 IgC domain (FIG. 5E). Flow cytrometry experiments were performed to determine binding to CHO cells expressing hB7-H4 (FIG. 5F) or mB7-H4 (FIG. 5G). […] A cross-reactive IgV binding antibody and an IgC binding antibody were used as controls.
as §3

[31] = target: T8, IgV domain of human B7-H4-Fc; assay: ELISA, coated hB7-H4 IgV domain; remark: listed apart in the source
Procedure: as §5, §2

mouse B7-H4-Fc [32] = target: T5, mouse B7-H4-Fc; assay: ELISA, coated mB7-H4-Fc
Procedure: as §5, §2

[33] = target: T10, IgC domain of human B7-H4-Fc; assay: ELISA, coated hB7-H4 IgC domain; remark: listed apart in the source
Procedure: as §5, §2

human B7-H4-Fc [34] = target: T1, human B7-H4-Fc; assay: ELISA, coated hB7-H4-Fc; remark: listed apart in the source
Procedure: as §5, §2

T5 sequence (chain, as listed by the source): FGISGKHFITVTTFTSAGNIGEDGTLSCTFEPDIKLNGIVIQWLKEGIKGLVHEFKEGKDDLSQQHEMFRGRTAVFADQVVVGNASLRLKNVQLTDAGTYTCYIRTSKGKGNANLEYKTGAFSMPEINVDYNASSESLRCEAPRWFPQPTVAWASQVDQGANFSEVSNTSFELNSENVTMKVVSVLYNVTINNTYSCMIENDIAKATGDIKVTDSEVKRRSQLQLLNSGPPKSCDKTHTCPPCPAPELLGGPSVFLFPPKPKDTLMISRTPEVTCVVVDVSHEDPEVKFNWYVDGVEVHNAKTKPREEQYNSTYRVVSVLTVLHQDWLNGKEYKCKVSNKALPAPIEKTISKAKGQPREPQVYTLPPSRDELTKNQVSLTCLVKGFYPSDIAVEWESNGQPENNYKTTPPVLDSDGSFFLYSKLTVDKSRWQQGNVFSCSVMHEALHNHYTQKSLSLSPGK
T8 sequence (chain, as listed by the source): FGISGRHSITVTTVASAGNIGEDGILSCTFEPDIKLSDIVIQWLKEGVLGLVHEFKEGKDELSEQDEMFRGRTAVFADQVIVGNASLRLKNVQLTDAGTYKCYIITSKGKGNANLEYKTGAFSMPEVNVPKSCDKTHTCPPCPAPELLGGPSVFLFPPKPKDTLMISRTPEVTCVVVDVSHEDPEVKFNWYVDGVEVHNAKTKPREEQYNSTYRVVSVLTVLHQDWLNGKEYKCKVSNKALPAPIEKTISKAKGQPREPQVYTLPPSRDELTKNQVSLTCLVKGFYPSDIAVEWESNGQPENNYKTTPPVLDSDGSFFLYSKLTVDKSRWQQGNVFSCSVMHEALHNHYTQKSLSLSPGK
T1 sequence (chain, as listed by the source): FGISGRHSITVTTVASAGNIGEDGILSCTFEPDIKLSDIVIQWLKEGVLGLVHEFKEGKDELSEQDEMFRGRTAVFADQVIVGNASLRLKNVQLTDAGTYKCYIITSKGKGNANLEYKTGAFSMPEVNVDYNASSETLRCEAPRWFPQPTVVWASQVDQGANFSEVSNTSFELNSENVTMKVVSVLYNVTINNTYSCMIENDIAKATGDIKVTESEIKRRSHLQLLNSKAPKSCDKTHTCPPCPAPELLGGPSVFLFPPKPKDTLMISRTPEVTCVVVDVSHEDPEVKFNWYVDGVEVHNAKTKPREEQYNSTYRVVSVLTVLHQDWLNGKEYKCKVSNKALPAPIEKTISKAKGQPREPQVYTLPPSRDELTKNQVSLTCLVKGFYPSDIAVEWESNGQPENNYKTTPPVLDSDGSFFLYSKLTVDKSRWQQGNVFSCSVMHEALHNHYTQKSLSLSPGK
T6 sequence (chain, as listed by the source): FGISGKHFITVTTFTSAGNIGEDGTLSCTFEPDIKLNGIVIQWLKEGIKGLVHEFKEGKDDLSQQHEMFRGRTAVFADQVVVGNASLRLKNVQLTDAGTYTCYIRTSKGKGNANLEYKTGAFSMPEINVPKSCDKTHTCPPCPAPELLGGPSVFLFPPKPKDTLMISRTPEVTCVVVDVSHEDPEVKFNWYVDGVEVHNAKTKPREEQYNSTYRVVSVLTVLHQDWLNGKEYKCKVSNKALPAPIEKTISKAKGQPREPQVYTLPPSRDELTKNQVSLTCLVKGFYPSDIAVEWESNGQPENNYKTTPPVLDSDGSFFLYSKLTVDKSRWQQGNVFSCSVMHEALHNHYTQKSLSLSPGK
T10 sequence (chain, as listed by the source): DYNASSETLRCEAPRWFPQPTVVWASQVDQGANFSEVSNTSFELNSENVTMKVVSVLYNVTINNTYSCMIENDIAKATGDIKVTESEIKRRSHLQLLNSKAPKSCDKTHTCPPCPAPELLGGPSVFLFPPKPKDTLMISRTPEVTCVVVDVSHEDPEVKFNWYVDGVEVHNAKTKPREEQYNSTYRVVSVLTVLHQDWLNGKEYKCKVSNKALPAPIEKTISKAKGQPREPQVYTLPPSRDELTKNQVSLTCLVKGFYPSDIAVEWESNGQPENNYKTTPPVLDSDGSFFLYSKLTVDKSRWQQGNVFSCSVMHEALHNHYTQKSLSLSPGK
T12 sequence (chain, as listed by the source): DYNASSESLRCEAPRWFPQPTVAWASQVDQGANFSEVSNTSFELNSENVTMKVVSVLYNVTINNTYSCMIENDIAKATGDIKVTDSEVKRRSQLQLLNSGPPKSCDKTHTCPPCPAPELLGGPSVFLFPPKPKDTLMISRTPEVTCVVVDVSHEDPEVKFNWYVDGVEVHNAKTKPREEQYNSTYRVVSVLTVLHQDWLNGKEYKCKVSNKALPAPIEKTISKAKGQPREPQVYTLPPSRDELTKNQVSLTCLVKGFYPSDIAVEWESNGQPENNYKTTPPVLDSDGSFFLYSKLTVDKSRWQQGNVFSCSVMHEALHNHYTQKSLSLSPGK

B1: 4H6/4H6 (antibody, human IgG1, V domains shown)
VH: EVQLLESGGGLVQPGGSLRLSCAASGFTFSSYGMHWVRQAPGKGLEWVSGISGSGGSTYYADSVKGRFTISRDNSKNTLYLQMNSLRAEDTAVYYCARTQWRASLDPWGQGTLVNVSS
VL: DIQMTQSPSSLSASVGDRVTITCRASQDISYWLAWYQQKPGKAPKLLIYGASTLQSGVPSRFSGSGSGTDFTLTISSLQPEDFATYYCQQTTMSPYTFGQGTKVEIK
EC50 (read off the curve) (human B7-H4-Fc [1]): ~0.01 µg/mL | binding result [2]: no binding | binding result (mouse B7-H4-his [3]): no binding | Kd (human B7-H4-Fc [4]): 2.86 nM | Kd (human B7-H4-his [5]): 4 nM | binding result (mouse B7-H4-Fc [6]): no binding (tested: log 0.3 ug/ml (about 2 ug/ml)) | binding result [7]: no binding | binding result [8]: no binding

B2: 3F2/50A10 (antibody, human IgG1, V domains shown)
VH: QVQLVQSGAEVKKPGASVKVSCKASGYTFTAQYMYWVRQAPGQGLEWMGRINPTSGNTVYAQKLQGRVTMTRDTSTSTVYMELSSLRSEDTAVYYCARGINWFDPWGQGTLVTVSS
VL: DIQMTQSPSSLSASVGDRVTITCQASQDISNYINWYQQKPGKAPKLLIYAASRLQSGVPSRFSGSGSGTDFTLTISSLQPEDFATYYCQQSYRSPFTFGQGTKLEIK
binding result [9]: no binding (tested: log 1 nM (10 nM)) | binding result [10]: no binding (tested: log 2 nM (100 nM)) | EC50 (read off the curve) (human B7-H4-Fc [11]): ~0.07 nM | EC50 (read off the curve) (human B7-H4-his [12]): ~0.1 nM | EC50 (read off the curve) [13]: ~0.1 nM | EC50 [14]: 0.12 nM | binding result [15]: no binding (tested: log 1 nM (10 nM)) | EC50 [16]: 1.18 nM | EC50 [17]: 0.046 nM | binding result (mouse B7-H4-his [18]): no binding (tested: 10 nM) | Kd [19]: 0.0385 nM | Kd (human B7-H4-Fc [20]): 0.0433 nM | Kd (human B7-H4-his [21]): 0.0155 nM | EC50 [22]: 0.41 nM | EC50 [23]: 0.416 nM | EC50 (read off the curve) [24]: ~0.08 nM | binding result [25]: no binding (tested: log 1 nM (10 nM)) | binding result (mouse B7-H4-Fc [26]): no binding (tested: 10 nM) | Kd [27]: 0.0454 nM | EC50 [28]: 0.082 nM

B3: 9H2/9H2 (antibody, V domains shown)
VH: QVQLVQSGAEVKKPGSSVKVSCKASGGTFSTYAINWVRQAPGQGLEWMGGINPMFGTARYAQKFQGRVTITADESTSTAYMELSSLRSEDTAVYYCARGRLHRHWGQGTLVTVSS
VL: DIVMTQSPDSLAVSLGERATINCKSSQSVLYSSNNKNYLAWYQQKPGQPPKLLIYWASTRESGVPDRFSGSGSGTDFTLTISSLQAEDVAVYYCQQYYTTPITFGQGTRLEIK
EC50 (read off the curve) (human B7-H4-his [29]): ~0.06 nM | binding result [30]: no binding (tested: log 2.3 nM (about 200 nM)) | EC50 (read off the curve) [31]: ~0.07 nM | binding result (mouse B7-H4-Fc [32]): no binding (tested: log 1 nM (10 nM)) | binding result [33]: no binding (tested: log 0.3 ug/ml (about 2 ug/ml)) | binding result [8]: no binding | EC50 (read off the curve) (human B7-H4-Fc [34]): ~0.07 nM
